Target: T1, extracellular domain of human CD79b fused to Fc (huCD79becd-Fc) (UniProt P40259 29-159)
T1 chain: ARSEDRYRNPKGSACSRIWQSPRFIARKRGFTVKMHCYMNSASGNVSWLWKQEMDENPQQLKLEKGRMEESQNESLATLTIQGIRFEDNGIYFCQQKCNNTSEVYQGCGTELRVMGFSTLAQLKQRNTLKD
Test: Biacore; Fab

Kd: 200 nM
B1: MA79b Fab (Fab, V domains shown)
VH: EVQLQQSGAELMKPGASVKISCKATGYTFSSYWIEWVKQRPGHGLEWIGEILPGGGDTNYNEIFKGKATFTADTSSNTAYMQLSSLTSEDSAVYYCTRRVPVYFDYWGQGTSVTVSS
VL: DIVLTQSPASLAVSLGQRATISCKASQSVDYDGDSFLNWYQQKPGQPPKLFIYAASNLESGIPARFSGSGSGTDFTLNIHPVEEEDAATYYCQQSNEDPLTFGAGTELELKR

— US20170058032A1 (published 2017)
